Target: CD47 WT (YSD CD47) (UniProt Q08722 19-135)
Test: flow cytometry, yeast surface display

B1: B6H12 (antibody, V domains shown)
VH: EVQLVESGGDLVKPGGSLKLSCAASGFTFSGYGMSWVRQTPDKRLEWVATITSGGTYTYYPDSVKGRFTISRDNAKNTLYLQIDSLKSEDTAIYFCARSLAGNAMDYWGQGTSVTVSS
VL: DIVMTQSPATLSVTPGDRVSLSCRASQTISDYLHWYQQKSHESPRLLIKFASQSISGIPSRFSGSGSGSDFTLSINSVEPEDVGVYYCQNGHGFPRTFGGGTKLEIK
Kd: ~0.33 nM
